Data on 1 molecule can be found in paper PMC2918618, “Characterization of the TnsD-attTn7 complex that promotes site-specific insertion of Tn7” (Mobile DNA, 2010).

What all share (test): EMSA; Gel-shift buffer not given (as described in ref. 6); TnsD stored in 500 mM KCl, 50 mM Tris-HCl pH 8.0, 1 mM EDTA, 2 mM DTT, 25% glycerol
(In general: In EMSA bound probe runs differently from free probe, usually more slowly.)

One data set has as its target T1, TnsD W371Z (Escherichia coli (transposon Tn7), UniProt P13991 1-370).
T1 sequence: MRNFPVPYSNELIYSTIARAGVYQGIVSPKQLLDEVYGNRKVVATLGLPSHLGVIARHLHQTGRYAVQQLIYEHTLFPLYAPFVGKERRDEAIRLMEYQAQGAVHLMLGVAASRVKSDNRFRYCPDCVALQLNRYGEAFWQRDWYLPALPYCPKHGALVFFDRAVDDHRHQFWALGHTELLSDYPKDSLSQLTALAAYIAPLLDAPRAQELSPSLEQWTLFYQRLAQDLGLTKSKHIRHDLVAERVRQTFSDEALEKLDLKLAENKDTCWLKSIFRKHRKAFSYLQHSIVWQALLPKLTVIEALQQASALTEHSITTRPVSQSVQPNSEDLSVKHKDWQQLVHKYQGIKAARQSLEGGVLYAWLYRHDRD
Particulars: protein: recombinant.

In a further data set the target is T2, TnsD C447Y (Escherichia coli (transposon Tn7), UniProt P13991 1-508, C447Y).
T2 sequence: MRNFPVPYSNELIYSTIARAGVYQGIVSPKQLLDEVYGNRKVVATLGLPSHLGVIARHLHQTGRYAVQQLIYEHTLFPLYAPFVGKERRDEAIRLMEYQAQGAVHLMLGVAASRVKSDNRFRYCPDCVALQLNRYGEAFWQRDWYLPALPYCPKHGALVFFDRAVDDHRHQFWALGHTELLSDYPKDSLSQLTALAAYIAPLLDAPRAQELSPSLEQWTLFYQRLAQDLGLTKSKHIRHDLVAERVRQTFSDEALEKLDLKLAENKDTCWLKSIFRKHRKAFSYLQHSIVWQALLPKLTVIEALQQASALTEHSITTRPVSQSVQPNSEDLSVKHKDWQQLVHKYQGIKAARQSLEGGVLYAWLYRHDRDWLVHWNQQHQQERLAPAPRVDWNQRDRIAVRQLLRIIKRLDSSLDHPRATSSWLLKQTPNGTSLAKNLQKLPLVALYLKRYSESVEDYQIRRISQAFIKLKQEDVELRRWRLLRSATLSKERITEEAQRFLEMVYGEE
To be noted: protein: recombinant; tags: intein-chitin tag, cleaved with DTT.

The target of a further data set is T3, TnsD Q340Z (Escherichia coli (transposon Tn7), UniProt P13991 1-339).
T3 sequence: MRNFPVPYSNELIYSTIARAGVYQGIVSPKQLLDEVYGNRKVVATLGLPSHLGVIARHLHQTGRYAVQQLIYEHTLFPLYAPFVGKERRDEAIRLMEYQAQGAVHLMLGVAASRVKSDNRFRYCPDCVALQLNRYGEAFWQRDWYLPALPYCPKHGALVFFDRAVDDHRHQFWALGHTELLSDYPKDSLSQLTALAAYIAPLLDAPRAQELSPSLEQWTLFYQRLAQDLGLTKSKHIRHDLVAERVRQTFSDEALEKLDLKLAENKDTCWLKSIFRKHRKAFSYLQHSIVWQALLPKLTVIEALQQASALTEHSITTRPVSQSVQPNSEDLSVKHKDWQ
Particulars: protein: recombinant.

The target in a further data set is T4, TnsD G109E (Escherichia coli (transposon Tn7), UniProt P13991 1-508, G109E).
T4 sequence: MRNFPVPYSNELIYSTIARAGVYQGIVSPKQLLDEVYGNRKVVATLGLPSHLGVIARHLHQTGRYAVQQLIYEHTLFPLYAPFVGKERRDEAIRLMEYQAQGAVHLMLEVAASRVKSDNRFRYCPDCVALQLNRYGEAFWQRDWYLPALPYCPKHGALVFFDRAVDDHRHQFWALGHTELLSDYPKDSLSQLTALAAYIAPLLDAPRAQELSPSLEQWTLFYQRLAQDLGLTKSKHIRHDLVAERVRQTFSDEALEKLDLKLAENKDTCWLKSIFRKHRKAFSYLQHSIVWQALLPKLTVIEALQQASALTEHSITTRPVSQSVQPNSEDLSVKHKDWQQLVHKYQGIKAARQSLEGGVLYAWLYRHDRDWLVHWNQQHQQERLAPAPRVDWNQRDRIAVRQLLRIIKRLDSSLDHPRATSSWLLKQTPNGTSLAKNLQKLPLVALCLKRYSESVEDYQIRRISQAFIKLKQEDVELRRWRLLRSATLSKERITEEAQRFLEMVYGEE
To be noted: protein: recombinant; tags: intein-chitin tag, cleaved with DTT.

The target in another data set is T5, TnsD P417L (Escherichia coli (transposon Tn7), UniProt P13991 1-508, P417L).
T5 sequence: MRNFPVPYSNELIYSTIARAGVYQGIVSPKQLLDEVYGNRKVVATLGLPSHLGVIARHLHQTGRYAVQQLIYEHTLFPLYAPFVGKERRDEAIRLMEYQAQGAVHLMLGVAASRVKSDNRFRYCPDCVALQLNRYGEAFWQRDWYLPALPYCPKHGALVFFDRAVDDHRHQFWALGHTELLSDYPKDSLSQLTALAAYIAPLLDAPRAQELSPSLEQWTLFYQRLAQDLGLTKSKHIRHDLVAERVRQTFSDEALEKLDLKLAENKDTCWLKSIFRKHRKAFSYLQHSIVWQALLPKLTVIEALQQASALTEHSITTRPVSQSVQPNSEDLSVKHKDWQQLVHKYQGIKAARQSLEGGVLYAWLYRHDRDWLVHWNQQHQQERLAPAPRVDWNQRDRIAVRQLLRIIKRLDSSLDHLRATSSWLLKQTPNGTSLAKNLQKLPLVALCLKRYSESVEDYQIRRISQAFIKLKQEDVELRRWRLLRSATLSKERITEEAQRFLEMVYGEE
Particulars: protein: recombinant; tags: intein-chitin tag, cleaved with DTT.

B1: attTn7 wt (+23 to +58) (dsDNA)
DNA 1: CCGCGTAACCTGGCAAAATCGGTTACGGTTGAGTAA
DNA 2: TTACTCAACCGTAACCGATTTTGCCAGGTTACGCGG
B1: the binding signal is < 0.05 relative to wt in the data set with TnsD W371Z; 0.7 relative to wt in the data set with TnsD C447Y; < 0.05 relative to wt in the data set with TnsD Q340Z; 0.05 relative to wt in the data set with TnsD G109E; 0.07 relative to wt in the data set with TnsD P417L.
